In article PMC4289141:

Legend:
[1] = molecular target: ^C81/C96RIDC1 (the C81/C96 double mutant of Rosetta Interface Designed Cytochrome 1) (UniProt P0ABE7); assay: AUC
[2] = molecular target: ^C81/C96RIDC1 (the C81/C96 double mutant of Rosetta Interface Designed Cytochrome 1) (UniProt P0ABE7); assay: cross-linking

## ^C81/C96RIDC1 (the C81/C96 double mutant of Rosetta Interface Designed Cytochrome 1) (from UniProt P0ABE7 23-128) (natural protein)
[1]
  stoichiometry N: 4
[2]
  abundance of polymeric species (19:1 GSH/GSSG, 1 mM, 1 day): 13%
  abundance of the tetramer (air oxidation, room temperature): 48%
  yield of the tetramer (19:1 GSH/GSSG, 1 mM, 1 day): 63%
